Results as given in patent US20110172153A1.

Legend:
[1] = target: rat parathyroid hormone receptor (PTHR) (UniProt P25961); assay: competition binding; R0 conformation
[2] = target: rat parathyroid hormone receptor (PTHR) (UniProt P25961); assay: competition binding; RG conformation

Chain of rat parathyroid hormone receptor (PTHR) (P25961 27-591): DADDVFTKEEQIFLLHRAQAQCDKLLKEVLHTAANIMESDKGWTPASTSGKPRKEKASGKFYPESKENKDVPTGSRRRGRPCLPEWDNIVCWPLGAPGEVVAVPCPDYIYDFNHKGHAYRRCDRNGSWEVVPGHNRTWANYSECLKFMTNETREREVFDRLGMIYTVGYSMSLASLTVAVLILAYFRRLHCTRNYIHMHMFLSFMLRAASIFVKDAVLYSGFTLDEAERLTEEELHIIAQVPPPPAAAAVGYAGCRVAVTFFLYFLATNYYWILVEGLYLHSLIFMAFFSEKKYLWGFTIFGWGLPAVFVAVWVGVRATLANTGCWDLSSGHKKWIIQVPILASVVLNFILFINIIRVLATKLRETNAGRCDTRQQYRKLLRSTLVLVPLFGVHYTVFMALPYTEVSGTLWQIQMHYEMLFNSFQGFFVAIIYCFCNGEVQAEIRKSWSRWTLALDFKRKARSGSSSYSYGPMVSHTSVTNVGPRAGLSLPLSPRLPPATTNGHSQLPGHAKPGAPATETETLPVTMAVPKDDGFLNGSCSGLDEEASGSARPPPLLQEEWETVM

Row | IC50 [1] | IC50 [2] | Substance
1 | 197 nM | 4.8 nM | H5,E19,Mc-hPTH(1-14)/rP(15-36)OH
2 | 1.9 nM | 0.56 nM | Mc-hPTH(1-34)OH
3 | 1.4 nM | 0.82 nM | Mc-PTH(1-18)/PTHrP(19-36)OH
4 | 20.3 nM | 0.49 nM | [A^23,E^19],Mc-hPTH(1-34)OH
5 | 2.33 nM | 0.57 nM | [E^19],Mc-hPTH(1-34)OH
6 | 1.3 nM | 0.81 nM | Mc-PTH(1-14)/PTHrP(15-36)OH
7 | 9 nM | 1.7 nM | H5,Mc-hPTH(1-14)/rP(15-36)OH
8 | 20 nM | 0.44 nM | hPTHrP(1-36)
9 | 1390 nM | 1.41 nM | H5,E19,Mc-hPTH(1-34)OH
10 | 1.8 nM | 0.73 nM | Mc-PTH(1-11)/PTHrP(12-36)OH
11 | 26 nM | 0.32 nM | H5,Mc-hPTH(1-34)OH
12 | 2.3 nM | 1.02 nM | [I^5]-PTHrP(1-36)
